Source: patent publication US20090175873A1 (Scripps Research, published 2009)
Numbered stars: 1 amine (or outer) side, 2 acyl side, 3 side chain; on linkers, the order of the positions; unused ones are H or OH. Square brackets hold non-standard residues; d marks the D form. * marks the point of attachment. AzaAsn = aza-asparagine, NC(=O)CN(N[*:1])C(=O)[*:2]; (S,S)‑EPCOOEt = (S,S)-epoxide ethyl ester; CH:CH‑COOEt = CCOC(=O)/C=C/*; Suc = O=C(CCC(=O)[*:2])[*:1]; Cbz = O=C(OCc1ccccc1)*

What was measured:
human legumain = molecular target: T1, human legumain (human, UniProt Q99538 19-323, limits assumed); test: cell-based or functional assay
T1 sequence: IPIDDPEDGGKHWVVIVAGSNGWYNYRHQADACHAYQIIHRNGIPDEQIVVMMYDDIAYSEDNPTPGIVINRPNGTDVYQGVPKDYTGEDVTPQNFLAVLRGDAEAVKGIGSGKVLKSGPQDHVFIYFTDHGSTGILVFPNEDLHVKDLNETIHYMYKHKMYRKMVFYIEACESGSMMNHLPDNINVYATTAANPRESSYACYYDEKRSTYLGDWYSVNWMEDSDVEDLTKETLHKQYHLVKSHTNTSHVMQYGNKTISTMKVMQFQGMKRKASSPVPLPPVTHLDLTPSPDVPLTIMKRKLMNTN

[1] = molecular target: recombinant legumain (Homo sapiens (Human)) (UniProt Q99538); test: cell-based or functional assay
recombinant legumain = molecular target: T2, recombinant legumain (Homo sapiens (Human), UniProt Q99538 19-323, limits assumed); test: cell-based or functional assay
T2 sequence: T1 sequence

caspase 9, P55211 = molecular target: T3, caspase 9, P55211
T3 chain: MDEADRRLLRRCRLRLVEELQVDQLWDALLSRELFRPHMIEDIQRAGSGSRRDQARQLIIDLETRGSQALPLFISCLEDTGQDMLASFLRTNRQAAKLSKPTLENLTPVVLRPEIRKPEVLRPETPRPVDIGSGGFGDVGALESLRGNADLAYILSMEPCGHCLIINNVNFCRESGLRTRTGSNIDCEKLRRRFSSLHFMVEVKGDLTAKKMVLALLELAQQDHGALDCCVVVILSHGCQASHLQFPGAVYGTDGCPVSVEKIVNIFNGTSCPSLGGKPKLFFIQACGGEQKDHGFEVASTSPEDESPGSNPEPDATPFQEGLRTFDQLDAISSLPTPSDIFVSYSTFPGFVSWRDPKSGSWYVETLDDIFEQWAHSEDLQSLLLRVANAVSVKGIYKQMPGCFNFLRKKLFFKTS

[2] = molecular target: T4, αvβ3 integrin (added to the legumain activity assays), P06756
T4 chain 1: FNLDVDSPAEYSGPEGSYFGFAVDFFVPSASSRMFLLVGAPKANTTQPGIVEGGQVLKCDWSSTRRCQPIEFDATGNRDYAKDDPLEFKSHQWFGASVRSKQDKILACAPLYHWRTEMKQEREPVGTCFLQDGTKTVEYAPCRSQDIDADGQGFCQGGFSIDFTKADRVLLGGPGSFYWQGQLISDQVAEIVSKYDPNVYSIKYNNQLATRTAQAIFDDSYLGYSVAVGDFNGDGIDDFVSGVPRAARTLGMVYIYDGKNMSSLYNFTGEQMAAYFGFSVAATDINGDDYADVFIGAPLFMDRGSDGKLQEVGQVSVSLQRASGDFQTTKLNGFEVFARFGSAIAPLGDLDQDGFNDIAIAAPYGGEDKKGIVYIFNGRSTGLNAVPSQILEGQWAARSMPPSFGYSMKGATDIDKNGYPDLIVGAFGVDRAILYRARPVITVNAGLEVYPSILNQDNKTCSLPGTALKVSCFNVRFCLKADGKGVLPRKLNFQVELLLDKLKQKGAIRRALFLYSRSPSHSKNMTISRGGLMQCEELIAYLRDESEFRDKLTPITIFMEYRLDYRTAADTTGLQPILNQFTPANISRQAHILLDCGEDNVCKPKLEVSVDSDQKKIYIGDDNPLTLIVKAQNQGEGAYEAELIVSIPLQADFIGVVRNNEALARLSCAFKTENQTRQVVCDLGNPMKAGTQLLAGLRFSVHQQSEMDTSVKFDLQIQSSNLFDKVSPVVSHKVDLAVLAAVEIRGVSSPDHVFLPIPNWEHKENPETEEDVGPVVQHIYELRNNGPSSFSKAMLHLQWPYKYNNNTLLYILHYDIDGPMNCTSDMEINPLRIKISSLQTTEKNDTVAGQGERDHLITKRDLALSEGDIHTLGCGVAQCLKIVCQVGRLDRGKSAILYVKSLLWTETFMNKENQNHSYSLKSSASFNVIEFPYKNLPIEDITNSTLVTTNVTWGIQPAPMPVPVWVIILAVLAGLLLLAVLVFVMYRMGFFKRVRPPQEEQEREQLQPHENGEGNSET
T4 chain 2: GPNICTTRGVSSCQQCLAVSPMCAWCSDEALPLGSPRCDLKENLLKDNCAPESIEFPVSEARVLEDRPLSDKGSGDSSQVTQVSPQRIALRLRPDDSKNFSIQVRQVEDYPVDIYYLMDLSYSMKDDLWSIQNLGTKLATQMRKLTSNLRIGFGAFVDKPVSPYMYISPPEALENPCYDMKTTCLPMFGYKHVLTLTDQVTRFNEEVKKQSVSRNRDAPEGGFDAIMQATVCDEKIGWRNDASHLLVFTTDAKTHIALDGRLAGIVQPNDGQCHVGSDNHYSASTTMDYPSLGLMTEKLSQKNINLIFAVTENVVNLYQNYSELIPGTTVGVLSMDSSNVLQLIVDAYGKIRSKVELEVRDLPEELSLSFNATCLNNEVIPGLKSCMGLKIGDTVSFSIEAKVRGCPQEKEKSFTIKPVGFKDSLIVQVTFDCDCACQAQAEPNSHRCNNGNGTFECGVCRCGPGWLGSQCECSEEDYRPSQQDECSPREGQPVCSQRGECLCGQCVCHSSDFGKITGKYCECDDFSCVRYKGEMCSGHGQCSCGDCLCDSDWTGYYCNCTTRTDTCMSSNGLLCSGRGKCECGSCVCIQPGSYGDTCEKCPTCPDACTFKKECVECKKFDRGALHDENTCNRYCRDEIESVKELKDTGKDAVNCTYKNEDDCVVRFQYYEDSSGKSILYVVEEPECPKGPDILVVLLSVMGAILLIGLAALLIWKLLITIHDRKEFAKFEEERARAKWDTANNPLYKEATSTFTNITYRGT

progelatinase A, P08253 = molecular target: T5, progelatinase A, P08253
T5 chain: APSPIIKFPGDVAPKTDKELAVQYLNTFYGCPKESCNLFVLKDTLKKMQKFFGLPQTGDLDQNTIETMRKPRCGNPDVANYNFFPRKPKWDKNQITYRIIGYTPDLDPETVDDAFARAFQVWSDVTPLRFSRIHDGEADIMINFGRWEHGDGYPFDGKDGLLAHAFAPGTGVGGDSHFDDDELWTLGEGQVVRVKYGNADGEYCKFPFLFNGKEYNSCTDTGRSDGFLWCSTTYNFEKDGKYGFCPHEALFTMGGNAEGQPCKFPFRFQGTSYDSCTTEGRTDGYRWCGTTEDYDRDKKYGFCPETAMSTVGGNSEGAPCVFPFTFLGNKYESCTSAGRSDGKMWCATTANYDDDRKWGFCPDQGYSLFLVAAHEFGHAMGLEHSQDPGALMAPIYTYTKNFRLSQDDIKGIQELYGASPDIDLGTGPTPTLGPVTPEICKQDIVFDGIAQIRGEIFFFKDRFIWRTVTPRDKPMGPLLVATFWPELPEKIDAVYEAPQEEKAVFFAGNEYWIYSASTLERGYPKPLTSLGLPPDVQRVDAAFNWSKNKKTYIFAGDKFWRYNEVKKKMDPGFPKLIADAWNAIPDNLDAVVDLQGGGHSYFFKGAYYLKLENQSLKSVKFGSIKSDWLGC

Molecule: cystatin
- EC50 (µM) of LEG-3 for 50% cell death on Legumain+ 293 cells in the presence of cystatin (human legumain): 64.4 µM

Molecule: αvβ3 integrin (added to the legumain activity assays) (from UniProt P06756 31-1048; P05106 27-788) (receptor)
- pH of peak legumain activity in the legumain:αvβ3 complex [1]: 6 pH

Molecule: Cbz-Ala-Ala-[AzaAsn]-{CH:CH‑COOEt} (SMILES CCOC(=O)/C=C/C(=O)N(CC(N)=O)NC(=O)[C@H](C)NC(=O)[C@H](C)NC(=O)OCc1ccccc1) [AEPI-2 (Cbz-Ala-Ala-AzaAsn-CH=CH-COOEt)]
- IC50, amidolytic activity assay of recombinant legumain with fluorescent substrate (recombinant legumain): ~0.021 µM

B1: LEG-3 (succinyl-Ala-Ala-Asn-Leu-doxorubicin) (peptide)
peptide: Suc-AANL-doxorubicin
modifications: not fully specified (residue 1); printed as succinyl-Ala-Ala-Asn-Leu-doxorubicin
- EC50 (µM), amount required for 50% cell death, Legumain+ 293 cells (human legumain): 3.2 µM

Molecule: Cbz-Ala-Ala-[AzaAsn]-{CH:CH‑CON(CH3)Bzl} [AEPI-4 (Cbz-Ala-Ala-AzaAsn-CH=CH-CON(CH3)Bzl)]
- IC50, amidolytic activity assay of recombinant legumain with fluorescent substrate (recombinant legumain): 0.158 µM

Molecule: Cbz-Ala-Ala-[AzaAsn]-{CH:CH‑COOBzl} [AEPI-3 (Cbz-Ala-Ala-AzaAsn-CH=CH-COOBzl)]
- IC50, amidolytic activity assay of recombinant legumain with fluorescent substrate (recombinant legumain): 0.034 µM

Molecule: Cbz-Ala-Ala-[AzaAsn]-{(S,S)‑EPCOOEt} [AEPI-1 (Cbz-Ala-Ala-AzaAsn-(S,S)-EPCOOEt)]
- IC50, amidolytic activity assay of recombinant legumain with fluorescent substrate (recombinant legumain): ~0.02 µM

B2: recombinant legumain (protein)
chain: T1 sequence
- cleavage of caspase 9 and loss of caspase 9 activity (caspase 9, P55211): legumain efficiently inactivates caspase 9 and depletes the cell of pro-caspase 9
- cathepsin B activity toward small peptidyl substrates (cathepsin B, P07858): cathepsin B activity toward small peptidyl substrates is not affected
- legumain amidolytic activity (hydrolysis of a substrate to a fluorescent product) [2]: binding of legumain to αvβ3 integrin can increase legumain activity nearly 100 fold
- zymogram: cleavage of MMP2 by legumain and legumain:αvβ3 (progelatinase A, P08253): legumain not only removes the pro-MMP2 propeptide but also cleaves MMP2 between its proteolytic domain and its integrin binding hemopexin domain
